In the assay the target is R28A-HD5 (human). Briefly: crystal structure.

Consider 1 substance from publication PMC6051418.

Broadly, the stoichiometry N is the number of molecules, sites or subunits per partner or assembly.

For R28A-HD5 (peptide), the stoichiometry N stood at 2.
